Reference: patent US20240201179A1 (Harvard, published 2024)

Target: T1, RBD from MERS-CoV (MERS-CoV, UniProt K9N5Q8 367-606)
T1 construct: domain: RBD
Assay: fluorescence response of the sensor (FIG. 12)

B1: VHH72 noK V104NBDxK (VHH72 noK V104K functionalized with NBDx-NHS at the V104K position) (VHH)
VHH: QVQLQESGGGLVQAGGSLRLSCAASGRTFSEYAMGWFRQAPGREREFVATISWSGGSTYYTDSVRGRFTISRDNARNTVYLQMNSLRPDDTAVYYCAAAGLGTKVSEWDYDYDYWGQGTQVTVSS
notes: also called nanoX; NanoX
Does B1 bind?
Result: no binding
